Reference: patent US20250027068
Where a chain is given by its changes, count along the chain named.

B1: PRT-337 (protein)
chain: MTITSVWTKGVTPPTPEDFRKNNEDVLHAPYLANQGWYDITKAFDGKDNLLCGAATAGNMLHWWFDQNKEEIERYLKKHPEKQKIIFNNQELFDVKAAIDTKDSQTNSKLFNYFRDKAFPNLSARQLGVMPDLVLDMFINGYYLNLGKTQSTDVNRPYQDKDKRGGIFDAVFTRGDQTTLLTARHDLKNKGLNEISDLIKQELTEGKALALSHTYANVSINHVINLWGADFDAEGNLEAIYVTDSDANASIGMKKYFVGRNAHGKVAISAKKIEGDNIGAQVLGLFTLSTGQDIWQKLS
B2: PRT-345 (protein)
chain: B1 chain with K21E, N112D, N236E, A249P
B3: PRT-339 (protein)
chain: B1 chain with K21E, N88G, N112D, I294Q
B4: PRT-338 (protein)
chain: B1 chain with K21E, T290L
B5: PRT-368 (protein)
chain: MSQTEDSESLQRLRDIEDFQAEKKDQNVVYTKWLDGVDVKDHDFRKIVDGNIAYYATPLLNGRGWYDINKDFNRDNDKCAAAVAANMFHYWLDRNRDNVDRFLRQNPEKHGIIELPDGQLKLSDFLNTYESDDGYRDKSKLFDFISENFNGPVWTDKLLDNYINGYAYNYKYGRTIEDSTKNTSKINFFKEVFNEKILTNNHSIRNQNEFSVLLIEALYTGKAIGLSYGPAGLRHSLGHIISVWGADLDADGNVVAIYVTDSDDKKLTIGDERVGLKRYKISTDDEGRLRLTAYEETHNTGGQVRGLWTLDTGKQAWADYFDKTEQTGTDQAEQ
B6: PRT-369 (protein)
chain: B5 chain with W65L, F210L, I215S
B7: PRT-370 (protein)
chain: B5 chain with I52S
B8: PRT-362 (protein)
chain: B5 chain with D25K, I52S, W65F, N76S, Y170S, S179P, S236G, V304I
B9: PRT-361 (protein)
chain: B5 chain with D25K, I52S, W65F, N76S, S179P, V304I
B10: PRT-353 (protein)
chain: MSQTEDSESLQRLRDIEDFQAEKEMQNVVYTKWLDGVDVKDHDFRKIVDGNSAYYATPLLNGRGWYDINKDFNRDSDKCAAAVAANMFHYWLDINRDNVDRFLRQNPEKHGIIELPDGQLKLSDFLNTYESDHGYRDKSKLFDFISENFNGPVWTDKLLDNYINGYAYNSKYGRTIEDPTKNTSKINFFKEVFNEKILTNNHSIRNQNEFSVLLIEALYTGKAIGLSYGPAGLRHGLGHIISVWGADLDADGNVVAIYVTDSDDKKLTIGDERVGLKRYKISTDDENRLRLTAYEETHNTGGQVRGLWTLDTGKYAWADYFDKTEQTGTDQAEQ
B11: PRT-347 (protein)
chain: B10 chain with E147N, S170Y, I215S, G236S
B12: PRT-354 (protein)
chain: B10 chain with E24K, S52E, W65F, S170Y, F210L, I215S, G236S, V304I
B13: PRT-355 (protein)
chain: B10 chain with E24K, S52E, W65F, S170Y, T175L, F210L, I215S, L233T, G236S, V304I
B14: PRT-346 (protein)
chain: B10 chain with W65F, E147N, S170Y, I215S, G236S

Molecular target: pooled human IgG (human IgG1,2,3 and 4)

Row | Protein | Enzyme Activity Endpoint Assay (purified): Fab′2 [ng/µL] | Enzyme Activity Endpoint Assay (purified): Fc [ng/µL] | Enzyme Activity Endpoint Assay (purified): IgG [ng/µL] | Enzyme Activity Endpoint Assay (purified): scIgG [ng/µL]
1 | B1 | 0 | 74 | 38 | 259
2 | B2 | 61 | 248 | 123 | 772
3 | B3 | 721 | 167 | 0 | 288
4 | B4 | 766 | 203 | 0 | 287
5 | B5 | 0 | 3 | 0 | 0
6 | B6 | 259 | 284 | 123 | 445
7 | B7 | 654 | 348 | 0 | 288
8 | B8 | 720 | 225 | 0 | 299
9 | B9 | 86 | 243 | 130 | 753
10 | B10 | 101 | 259 | 189 | 767
11 | B11 | 769 | 397 | 0 | 309
12 | B12 | 618 | 213 | 0 | 233
13 | B13 | 952 | 500 | 0 | 367
14 | B14 | 607 | 217 | 0 | 246
